Test results from the supplement of paper PMC12042874.
± gives the uncertainty stated by the source.

Assay: amyloid nucleation score (Sup35N fusion, yeast selection) (log enrichment); library NNK3; higher = more nucleation; inactive = no reads after selection
In short: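 Nucleation score is defined as the DiMSum log enrichment of output over input reads, with centring on the mode score of non-aggregating sequences. A minimum of 100 input reads was required for each sequence. Reads came from Illumina sequencing of plasmid inserts from psi-negative yeast expressing Sup35N fused to peptides of 20 random codons, induced with 100 μM copper sulfate for 24 hours and grown 7 days at 30°C on medium lacking adenine and uracil.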

Substance: CGQFVEISKYG
- amyloid nucleation score: inactive

Substance: CGSRLYRCETAMMVLRIRSG
- amyloid nucleation score: inactive

Substance: CGTTVGFLMLYLSCIRWL
- amyloid nucleation score: inactive

Substance: CGYEVIGNIFGM
- amyloid nucleation score: inactive

Substance: CHAIASVVSEYNGPLVVTVI
- amyloid nucleation score: inactive

Substance: CIAMKMWKNIRRWWSGRVAG
- amyloid nucleation score: inactive

Substance: CIGFGCLLIVHLPIYACPWC
- amyloid nucleation score: inactive

Substance: CIHTPDRCKVCNGITFDGRC
- amyloid nucleation score: inactive

Substance: CIQLVVT
- amyloid nucleation score: inactive

Substance: CIQSMRH
- amyloid nucleation score: inactive

Substance: CIRICNISFFL
- amyloid nucleation score: 2.71 ± 0.075

Substance: CISLSRL
- amyloid nucleation score: inactive

Substance: CISTVIEKMLVIYEKNRFQH
- amyloid nucleation score: 0.529 ± 0.46

Substance: CIVMG
- amyloid nucleation score: inactive

Substance: CKHYVGLYKLTVWRFCGKNT
- amyloid nucleation score: inactive

Substance: CKPDLMA
- amyloid nucleation score: inactive

Substance: CLACFI
- amyloid nucleation score: inactive

Substance: CLALSGIIIFELKAYLGSWC
- amyloid nucleation score: 1.27 ± 0.12

Substance: CLDPRGRNRAGPAVIGGPSV
- amyloid nucleation score: inactive

Substance: CLFSGEGLARKCYSDNS
- amyloid nucleation score: inactive

Substance: CLFSLLYPCGWINYSNSNMS
- amyloid nucleation score: 0.437 ± 0.17

Substance: CLGNENVELVSTNVVYRYIS
- amyloid nucleation score: inactive

Substance: CLIFDLSRKKYWVKRDRKAW
- amyloid nucleation score: 1.91 ± 0.062

Substance: CLIYTTVFHSAG
- amyloid nucleation score: 0.708 ± 0.13

Substance: CLKFQSVY
- amyloid nucleation score: inactive

Substance: CLKSA
- amyloid nucleation score: -0.912 ± 0.93

Substance: CLLNGDLHVEGWTLV
- amyloid nucleation score: inactive

Substance: CLPPKS
- amyloid nucleation score: inactive

Substance: CLRVLWLSQLTVSCDF
- amyloid nucleation score: -0.354 ± 1.8

Substance: CLSTFLGRSEKPL
- amyloid nucleation score: inactive

Substance: CLTLMALAKGFGVWGG
- amyloid nucleation score: -0.176 ± 0.92

Substance: CLTLYRHQ
- amyloid nucleation score: 0.313 ± 0.54

Substance: CLWKG
- amyloid nucleation score: inactive

Substance: CLYFY
- amyloid nucleation score: 1.93 ± 0.1

Substance: CLYPGRSWVTGAGITVWSLV
- amyloid nucleation score: inactive

Substance: CMLAQRRVTPRRYRLVSSTI
- amyloid nucleation score: inactive

Substance: CMLSDVIFYIVDDIRMFVGV
- amyloid nucleation score: inactive

Substance: CMNWCVSRMVNTIVIWCMAY
- amyloid nucleation score: inactive

Substance: CNHVSLTMILVRVLNMFF
- amyloid nucleation score: 0.968 ± 0.23

Substance: CNNRVVWLKHGSLSREDGVQ
- amyloid nucleation score: inactive

Substance: CNSETRAFYYLALWVLFFFN
- amyloid nucleation score: inactive

Substance: CNSVRLGFQWAKYVLWRHRG
- amyloid nucleation score: inactive

Substance: CNWINLNIRSVRIYHPYSRF
- amyloid nucleation score: 1.54 ± 0.072

Substance: CNYPKFHWLGRSVIKFIDFL
- amyloid nucleation score: inactive

Substance: CNYWCDVGLYGSKAFERSAT
- amyloid nucleation score: inactive

Substance: CPGDPVESRCFPVLVNLRRG
- amyloid nucleation score: inactive

Substance: CPNMPSSTGTKPSNVMVSFS
- amyloid nucleation score: inactive

Substance: CPTIPMVGTF
- amyloid nucleation score: inactive

Substance: CPVLGCMSTGEYHCFLTQTY
- amyloid nucleation score: inactive

Substance: CQDHVKNITAIPHSSGMYMS
- amyloid nucleation score: inactive

Substance: CQHGGCALQHHTYRCEVGAG
- amyloid nucleation score: inactive

Substance: CQPSF
- amyloid nucleation score: inactive

Substance: CQSKLKLSMLCRWFRCTIGK
- amyloid nucleation score: inactive

Substance: CQSPDALVRWGR
- amyloid nucleation score: -0.087 ± 0.93

Substance: CQSVLCAKFLVSERH
- amyloid nucleation score: inactive

Substance: CRCGSKNTTVRTLLNRGYSE
- amyloid nucleation score: inactive

Substance: CRFWGFDSSINEVGLMQNHL
- amyloid nucleation score: inactive

Substance: CRKLYNISFLVLLTFFSHLF
- amyloid nucleation score: inactive

Substance: CRKTESAMRWK
- amyloid nucleation score: inactive

Substance: CRLYEDIGISYMVATNQLEY
- amyloid nucleation score: inactive

Substance: CRMAKRLAVRTSLRRMFSES
- amyloid nucleation score: inactive

Substance: CRQVRFALLNFLAAG
- amyloid nucleation score: inactive

Substance: CRQWCDWCTGSYPGYCFQC
- amyloid nucleation score: inactive

Substance: CRRIYPFRP
- amyloid nucleation score: -0.064 ± 0.66

Substance: CRSLSLTSGIKF
- amyloid nucleation score: inactive

Substance: CRWNVNNFPHLFITKMMFRY
- amyloid nucleation score: inactive

Substance: CSCQMSRFMRTLVCVFT
- amyloid nucleation score: inactive

Substance: CSEGLYGVSTVICCIISSVN
- amyloid nucleation score: 2.2 ± 0.077

Substance: CSEQEACISK
- amyloid nucleation score: inactive

Substance: CSFRIMGDQMIGKTCCRFGH
- amyloid nucleation score: inactive

Substance: CSFTARFLHTMSPKKFKLGN
- amyloid nucleation score: inactive

Substance: CSGDD
- amyloid nucleation score: inactive

Substance: CSGLCGFSQ
- amyloid nucleation score: inactive

Substance: CSGYFDCIDTLKCNSS
- amyloid nucleation score: inactive

Substance: CSGYVNGLVIQGKCAKDVVW
- amyloid nucleation score: inactive

Substance: CSLTRFRWGYRTFEDNAPFH
- amyloid nucleation score: 1.57 ± 0.075

Substance: CSLWSMQGYLHEWRICCWRH
- amyloid nucleation score: inactive

Substance: CSMFVAIIPRWSFEWPLRW
- amyloid nucleation score: inactive

Substance: CSMSAIMYYSARFDV
- amyloid nucleation score: inactive

Substance: CSPSFDVYPMV
- amyloid nucleation score: inactive

Substance: CSRYFRWYHVLAYCSVPNRM
- amyloid nucleation score: inactive

Substance: CSTFNFRGNTIHLNLCWEVI
- amyloid nucleation score: 0.424 ± 0.71

Substance: CSTIVWWEIAYKL
- amyloid nucleation score: inactive

Substance: CTLGHCMKLSMSSFPAVGKV
- amyloid nucleation score: inactive

Substance: CTLMIFGCN
- amyloid nucleation score: inactive

Substance: CTVPMPDSVNVSAE
- amyloid nucleation score: inactive

Substance: CVAECPLA
- amyloid nucleation score: inactive

Substance: CVASGCTVKACFYSMREDRY
- amyloid nucleation score: 1.53 ± 0.092

Substance: CVATNYSYCSIFLHRA
- amyloid nucleation score: 2.01 ± 0.079

Substance: CVICSELLSSDCIIGDHRLR
- amyloid nucleation score: 1.7 ± 0.1

Substance: CVILYLTGKSFIVLSIVVAE
- amyloid nucleation score: inactive

Substance: CVIPRQIYWWCYRSTGRLIL
- amyloid nucleation score: inactive

Substance: CVLRAFATVKHFTSGLCSCG
- amyloid nucleation score: inactive

Substance: CVNGTKEGTVRGSRARGRSF
- amyloid nucleation score: inactive

Substance: CVSMKRN
- amyloid nucleation score: 2.07 ± 0.067

Substance: CVSNISSFGKLEFTYVIEVW
- amyloid nucleation score: inactive

Substance: CVSYAISNGLRMEFSKENQY
- amyloid nucleation score: 0.415 ± 0.14

Substance: CVTINVIFDNVVY
- amyloid nucleation score: 2.3 ± 0.061

Substance: CVVIFICPQKG
- amyloid nucleation score: 0.811 ± 0.26

Substance: CVVPHPLSLPSD
- amyloid nucleation score: inactive

Substance: CVWTSVLDVRYLYWCNVDVR
- amyloid nucleation score: inactive

Substance: CWKQGLNRYLWW
- amyloid nucleation score: 0.752 ± 0.13

Substance: CWTMVASVTCYIVLLARWK
- amyloid nucleation score: inactive

Substance: CYDTFGLFYCFLVWVWDLIV
- amyloid nucleation score: inactive

Substance: CYEGR
- amyloid nucleation score: inactive

Substance: CYELLESS
- amyloid nucleation score: inactive

Substance: CYHAFRCSGLARACVENINW
- amyloid nucleation score: inactive

Substance: CYLFVLL
- amyloid nucleation score: inactive

Substance: CYLSSTGVVYAGYVYI
- amyloid nucleation score: inactive

Substance: CYLVLFGAM
- amyloid nucleation score: inactive

Substance: CYNAKCHFIGYDVAGNSGVW
- amyloid nucleation score: inactive

Substance: CYNQRGCTIGILQFLPRPVW
- amyloid nucleation score: inactive

Substance: CYRWL
- amyloid nucleation score: inactive

Substance: DAAQCRSDNYALFELNSAHC
- amyloid nucleation score: inactive

Substance: DADYLT
- amyloid nucleation score: inactive

Substance: DAETPLHSFGMQLLGRASMR
- amyloid nucleation score: inactive

Substance: DAKKVCFGIKEDCWR
- amyloid nucleation score: inactive

Substance: DALVYVLGSCMWIGASSTSA
- amyloid nucleation score: -0.354 ± 1.1

Substance: DAPVVTVRAGNAGNHSMIPW
- amyloid nucleation score: inactive

Substance: DCCGLVAYNLVFRICGACLG
- amyloid nucleation score: inactive

Substance: DCESQQLSSSMWDTPQRWLT
- amyloid nucleation score: inactive

Substance: DCFDFIEETGTNKAFRVWGI
- amyloid nucleation score: 0.283 ± 0.24

Substance: DCGSSCKSYPGKVVDNEMDE
- amyloid nucleation score: inactive

Substance: DCGVVCSRNRNAEEEMLDSV
- amyloid nucleation score: inactive

Substance: DCWHLRQLWGVMSCQ
- amyloid nucleation score: 0.48 ± 0.42

Substance: DDDEVASCLPYWRCAALKSG
- amyloid nucleation score: inactive

Substance: DDFVG
- amyloid nucleation score: inactive

Substance: DDRDSNSVTLDNSWSYSITV
- amyloid nucleation score: inactive

Substance: DDRLCLGASENVWGFTVVRR
- amyloid nucleation score: inactive

Substance: DECVYLFKNSYSVIILMFFK
- amyloid nucleation score: inactive

Substance: DECYNVLRSVVYGMTSSTGW
- amyloid nucleation score: inactive

Substance: DEFINLSFA
- amyloid nucleation score: inactive

Substance: DEIACPYSAWLRMSMPEARS
- amyloid nucleation score: inactive

Substance: DEMPRVSMRVNNMPGCDNDE
- amyloid nucleation score: inactive

Substance: DFGMVLSNRFKTMKDCSYFC
- amyloid nucleation score: 0.785 ± 0.23

Substance: DFIDLLLSSDEIMKS
- amyloid nucleation score: inactive

Substance: DFRHSMEASWKIWIRAGTRE
- amyloid nucleation score: inactive

Substance: DFYIGTGLISKVRLGHRCSC
- amyloid nucleation score: -0.305 ± 0.44

Substance: DFYIIDSLIRMCMRICEFVL
- amyloid nucleation score: inactive

Substance: DGARLCSAAMLAGQGLDEDG
- amyloid nucleation score: inactive

Substance: DGAVFRFNMGHYKYSLVEVM
- amyloid nucleation score: inactive

Substance: DGCGFIVTFVSAGVRSWLGI
- amyloid nucleation score: 0.712 ± 0.29

Substance: DGFLKLEFAFQCFTRLCLAF
- amyloid nucleation score: inactive

Substance: DGPTRLNLFNSLFVSLKRMY
- amyloid nucleation score: 1.58 ± 0.12

Substance: DGRRSMATCWIHSNCPWRAS
- amyloid nucleation score: inactive

Substance: DHAIM
- amyloid nucleation score: 1.46 ± 0.14

Substance: DHCGNFEDRWICVINNMRVS
- amyloid nucleation score: inactive

Substance: DHCRNKQCVPTWDAYLEQ
- amyloid nucleation score: -0.339 ± 0.52

Substance: DHVGCATNRSDVDVTVFV
- amyloid nucleation score: inactive

Substance: DHWLLQYERRCKLGGFGY
- amyloid nucleation score: inactive

Substance: DICHWVEYFV
- amyloid nucleation score: inactive

Substance: DICRFNWMFHF
- amyloid nucleation score: 1.3 ± 0.11

Substance: DIFCCWTDISDLF
- amyloid nucleation score: inactive

Substance: DIFGSGYGYRGLSGRNYINM
- amyloid nucleation score: inactive

Substance: DIPSVGQKRCSHGDRYNSAK
- amyloid nucleation score: inactive

Substance: DIRCGFLHKQGPLTMRATEQ
- amyloid nucleation score: inactive

Substance: DIRSGTLC
- amyloid nucleation score: inactive

Substance: DISIPVLKRSFTCSMAYHC
- amyloid nucleation score: inactive

Substance: DISSFGHFSMSFFNRIIKGA
- amyloid nucleation score: inactive

Substance: DISSKY
- amyloid nucleation score: inactive

Substance: DIVSLVNAFMISTIYTVTRK
- amyloid nucleation score: inactive
